# Data published in patent publication US20210330742.
# Numbering of substitutions follows the chain as printed. In names and notes the source's numbering stands.
# B1: CDK4-WT (over-expressed) (protein)
# chain: MATSRYEPVAEIGVGAYGTVYKARDPHSGHFVALKSVRVPNGGGGGGGLPISTVREVALLRRLEAFEHPNVVRLMDVCATSRTDREIKVTLVFEHVDQDLRTYLDKAPPPGLPAETIKDLMRQFLRGLDFLHANCIVHRDLKPENILVTSGGTVKLADFGLARIYSYQMALTPVVVTLWYRAPEVLLQSTYATPVDMWSVGCIFAEMFRRKPLFCGNSEADQLGKIFDLIGLPPEDDWPRDVSLPRGAFPPRGPRPVQSVVPEMEESGAQLLLEMLTFNPHKRISAFRALQHSYLHKDEGNPE
# B2: Flag-CDK4-T172A (protein)
# chain: B1 chain with T172A
# What was measured:
# [1] = biological target: RUNX3 (Runt-related transcription factor 3) protein, Q13761
# Sequence of RUNX3 (Runt-related transcription factor 3) protein, Q13761 (Q13761 whole entry): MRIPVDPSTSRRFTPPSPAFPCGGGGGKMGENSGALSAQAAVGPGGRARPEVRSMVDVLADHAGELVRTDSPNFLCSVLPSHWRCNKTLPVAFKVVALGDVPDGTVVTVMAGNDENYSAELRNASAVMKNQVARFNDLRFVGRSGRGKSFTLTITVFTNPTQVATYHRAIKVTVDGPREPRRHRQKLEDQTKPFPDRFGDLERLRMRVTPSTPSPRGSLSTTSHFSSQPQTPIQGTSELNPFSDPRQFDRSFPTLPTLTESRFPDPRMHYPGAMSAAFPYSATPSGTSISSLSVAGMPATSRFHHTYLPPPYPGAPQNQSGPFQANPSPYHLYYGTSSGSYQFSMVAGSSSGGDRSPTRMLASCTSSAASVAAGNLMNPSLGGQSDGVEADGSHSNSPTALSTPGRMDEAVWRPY
# Sequence of Myc-RUNX3, Q13761 (Q13761 whole entry): as above
Protein,"phosphorylation of RUNX3 at Ser-356 (immunoblot) (Myc-RUNX3, Q13761)",phosphorylation of RUNX3 at Ser-356 (immunoblot) [1]
B1,The over-expressed CDK4-WT phosphorylated Myc-RUNX3 2 to 4 hours after serum stimulation,–
B2,–,did not phosphorylate the 356th serine of RUNX3
